In patent publication US20040120954A1, “Regulation of mt1-mmp activity” (priority 2000, published 2004):

Assays:
[1] = target: FLAG epitope-tagged MT1-MMP (MT1-F) (human) (UniProt P50281); assay: binding of 25 nM 125I-labeled TIMP-2 to transfected CHO-K1 cells at 0 C, with and without BB-94
[2] = target: Membrane-type 1 matrix metalloproteinase (MT1-MMP) (human) (UniProt P50281)
[3] = target: MT1-F/NGFR (chimera of the ectodomain of MT1-F with the transmembrane/cytoplasmic domain of NGFR) (human) (UniProt P50281); assay: COS1 cells co-transfected with MT1-F/NGFR, Rac1DA and MT1PEX-F, PY20 Western blot (FIG. 24)
[4] = target: MT1-F/NGFR (chimera of the ectodomain of MT1-F with the transmembrane/cytoplasmic domain of NGFR) (human) (UniProt P50281); assay: competition with the dimer formation of MT1-F/NGFR in co-transfected COS1 cells, PY20 Western blot (FIG. 10)

decrease in TIMP-2 binding on the cell surface on co-transfection of MT1PEX-F, against MT1-F alone [1] [%]	Matrigel invasion by HT1080 cells (GFP-positive invading cells) [2] [%]	decrease of the phosphotyrosine signal of MT1-F/NGFR [3] [%]	inhibition of the phosphorylation of MT1-F/NGFR [4] [%]	Substance
37				Recombinant human TIMP-2 (tissue inhibitor of metalloproteinase-2) (from UniProt P16035)
	70	43	> 90	Catalytic domain-deleted FLAG-tagged MT1-MMP (MT1PEX-F) (from UniProt P50281)
